# Results taken from patent US20190071477A1.
# Tests used:
# C3b [1] = molecular target: C3b (UniProt P01024); assay: cell-based or functional assay
# C3b [2] = molecular target: C3b (UniProt P01024); assay: ELISA on plates coated with C3b (5 ug/mL), detection with mouse anti-human CFH antibody and HRP goat anti-mouse, OD450
# Chain of hSCR (1-7)-mFc fusion protein (chain): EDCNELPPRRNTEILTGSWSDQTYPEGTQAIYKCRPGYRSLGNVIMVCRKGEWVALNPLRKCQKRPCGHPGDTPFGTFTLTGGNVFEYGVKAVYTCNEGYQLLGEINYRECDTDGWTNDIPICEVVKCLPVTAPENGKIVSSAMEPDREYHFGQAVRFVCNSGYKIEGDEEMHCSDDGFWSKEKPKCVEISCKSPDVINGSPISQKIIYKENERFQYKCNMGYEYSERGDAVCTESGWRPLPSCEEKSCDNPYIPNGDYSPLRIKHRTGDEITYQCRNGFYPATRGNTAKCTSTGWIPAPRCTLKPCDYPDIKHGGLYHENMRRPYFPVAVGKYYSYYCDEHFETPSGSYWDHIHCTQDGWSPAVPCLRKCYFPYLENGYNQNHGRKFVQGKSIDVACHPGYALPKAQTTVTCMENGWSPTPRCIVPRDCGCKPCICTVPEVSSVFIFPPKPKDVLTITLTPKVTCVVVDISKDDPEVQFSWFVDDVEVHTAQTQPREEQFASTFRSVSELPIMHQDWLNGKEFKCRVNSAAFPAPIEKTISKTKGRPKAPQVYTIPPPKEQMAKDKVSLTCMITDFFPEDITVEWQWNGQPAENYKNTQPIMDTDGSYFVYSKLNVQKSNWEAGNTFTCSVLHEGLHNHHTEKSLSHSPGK
# Chain of human CFH (complement Factor H) (P08603 19-1231 limits assumed): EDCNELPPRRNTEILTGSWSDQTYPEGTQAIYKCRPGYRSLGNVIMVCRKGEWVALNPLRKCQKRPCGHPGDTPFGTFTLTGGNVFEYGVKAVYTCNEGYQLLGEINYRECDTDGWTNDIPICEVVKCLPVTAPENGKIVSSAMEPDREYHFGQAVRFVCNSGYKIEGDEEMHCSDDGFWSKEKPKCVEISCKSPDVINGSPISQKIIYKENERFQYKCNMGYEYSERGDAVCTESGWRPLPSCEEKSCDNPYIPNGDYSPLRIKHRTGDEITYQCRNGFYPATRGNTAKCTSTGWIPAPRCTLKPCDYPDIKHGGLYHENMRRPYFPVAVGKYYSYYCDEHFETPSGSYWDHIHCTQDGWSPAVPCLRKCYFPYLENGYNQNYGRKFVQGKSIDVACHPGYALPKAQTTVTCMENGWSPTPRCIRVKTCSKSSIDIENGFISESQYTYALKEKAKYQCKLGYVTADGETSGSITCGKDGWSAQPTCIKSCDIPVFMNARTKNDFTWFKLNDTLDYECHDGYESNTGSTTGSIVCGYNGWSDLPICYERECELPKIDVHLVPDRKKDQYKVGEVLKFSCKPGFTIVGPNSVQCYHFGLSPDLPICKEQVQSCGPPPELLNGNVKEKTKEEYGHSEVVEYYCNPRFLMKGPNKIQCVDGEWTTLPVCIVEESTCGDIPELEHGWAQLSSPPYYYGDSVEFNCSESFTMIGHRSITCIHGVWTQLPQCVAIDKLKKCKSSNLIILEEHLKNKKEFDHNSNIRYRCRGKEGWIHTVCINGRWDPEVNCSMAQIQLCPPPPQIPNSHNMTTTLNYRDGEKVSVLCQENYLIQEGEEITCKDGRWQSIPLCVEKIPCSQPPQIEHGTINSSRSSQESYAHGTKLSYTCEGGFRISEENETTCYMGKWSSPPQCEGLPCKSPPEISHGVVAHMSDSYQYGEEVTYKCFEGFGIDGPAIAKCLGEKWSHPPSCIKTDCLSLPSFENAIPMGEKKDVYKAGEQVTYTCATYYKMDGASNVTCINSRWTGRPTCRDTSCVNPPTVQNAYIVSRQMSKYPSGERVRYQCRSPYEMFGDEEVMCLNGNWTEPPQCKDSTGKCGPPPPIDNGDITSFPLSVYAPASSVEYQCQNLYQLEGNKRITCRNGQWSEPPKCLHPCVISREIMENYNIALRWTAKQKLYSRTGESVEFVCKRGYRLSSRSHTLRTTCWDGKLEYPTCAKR
# Chain of hSCR (1-7)-hSCR (18-20)-hFc fusion protein (P08603 other isoform, or with tags, fused parts or gaps limits assumed): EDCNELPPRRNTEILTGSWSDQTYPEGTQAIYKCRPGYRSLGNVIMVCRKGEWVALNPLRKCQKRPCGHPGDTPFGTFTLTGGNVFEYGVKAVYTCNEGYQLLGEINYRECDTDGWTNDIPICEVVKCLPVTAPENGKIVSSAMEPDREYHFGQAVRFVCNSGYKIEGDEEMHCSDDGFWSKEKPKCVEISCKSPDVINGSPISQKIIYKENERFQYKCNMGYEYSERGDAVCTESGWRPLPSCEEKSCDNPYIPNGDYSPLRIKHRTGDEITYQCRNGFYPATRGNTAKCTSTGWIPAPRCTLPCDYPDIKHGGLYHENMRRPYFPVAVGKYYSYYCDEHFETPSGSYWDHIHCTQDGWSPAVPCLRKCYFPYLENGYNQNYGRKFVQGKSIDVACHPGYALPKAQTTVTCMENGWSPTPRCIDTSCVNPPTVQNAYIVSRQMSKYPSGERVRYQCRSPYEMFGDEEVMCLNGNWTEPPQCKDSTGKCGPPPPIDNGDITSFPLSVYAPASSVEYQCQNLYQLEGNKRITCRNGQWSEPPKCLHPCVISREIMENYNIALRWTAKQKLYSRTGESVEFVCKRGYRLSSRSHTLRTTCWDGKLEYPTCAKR
EC50 (read off the curve) (C3b [2]),Substance,"IC50, inhibition of rabbit red blood cell hemolysis mediated by the alternative complement pathway (C3b [1])",hemolysis inhibiting activity relative to human CFH (C3b [1])
30 nM,hSCR (1-7)-hFc fusion protein,74 nM,5 times
–,hSCR (1-7)-hSCR (18-20)-hFc fusion protein (from UniProt P08603 19-1231),330 nM,–
30 nM,hSCR (1-7)-mFc fusion protein,86 nM,–
–,human CFH (complement Factor H) (from UniProt P08603 19-1231),370 nM,–
